Experimental data from the supplement of paper PMC10065799, “High-throughput profiling of sequence recognition by tyrosine kinases and SH2 domains using bacterial peptide display” (eLife, 2023).

Biological target: FGFR3 (UniProt P22607)
Test: phosphorylation enrichment, bacterial display (enrichment ratio); higher = better substrate or ligand; peptides without Tyr show the background
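Further: 11-residue human phosphosite peptides and single-mutation variants displayed on the E. coli surface, counted by deep sequencing, each peptide's frequency after selection divided by its frequency in the unselected input library; frequency after pTyr selection over input frequency; kinase dosed for 20-30% of maximal phosphorylation in three min.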

Chain of FGFR3 (P22607 whole entry, looked up): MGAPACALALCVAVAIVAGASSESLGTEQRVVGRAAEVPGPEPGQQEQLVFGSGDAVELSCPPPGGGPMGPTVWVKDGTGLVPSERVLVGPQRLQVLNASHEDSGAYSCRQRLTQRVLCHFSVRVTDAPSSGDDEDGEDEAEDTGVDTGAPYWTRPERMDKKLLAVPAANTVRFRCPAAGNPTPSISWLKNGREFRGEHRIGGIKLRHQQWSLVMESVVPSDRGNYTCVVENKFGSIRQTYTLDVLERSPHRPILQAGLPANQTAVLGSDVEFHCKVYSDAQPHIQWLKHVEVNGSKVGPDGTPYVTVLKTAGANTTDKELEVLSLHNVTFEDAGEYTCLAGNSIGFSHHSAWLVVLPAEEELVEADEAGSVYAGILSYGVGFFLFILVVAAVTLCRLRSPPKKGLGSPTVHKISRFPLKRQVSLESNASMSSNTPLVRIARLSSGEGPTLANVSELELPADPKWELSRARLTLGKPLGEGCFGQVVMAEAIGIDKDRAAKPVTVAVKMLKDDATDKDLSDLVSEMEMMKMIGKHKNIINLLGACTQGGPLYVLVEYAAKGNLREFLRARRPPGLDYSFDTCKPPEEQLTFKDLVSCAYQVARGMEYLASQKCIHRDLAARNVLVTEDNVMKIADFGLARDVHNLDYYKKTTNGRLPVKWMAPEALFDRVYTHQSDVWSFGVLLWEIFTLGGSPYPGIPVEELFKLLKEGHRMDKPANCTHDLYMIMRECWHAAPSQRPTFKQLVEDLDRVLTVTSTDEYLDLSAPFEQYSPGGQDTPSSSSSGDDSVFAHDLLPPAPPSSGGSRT

Going from GLTSTYAGIRK [ROBO1_Y932] to SPGGDYAAMGA [ERBB3_Y1276_G1271S], the phosphorylation enrichment rises from 0.372 to 0.609.

First: DTNIAYCLHPR [POMT1_Y581_W582C]
Second: GCVSKYSGVFS [TUBGCP6_Y1624]
The phosphorylation enrichment of the first is higher: 0.691 for the first, 0.51 for the second.

First: EADRKYEEVAR [TPM3_Y163]
Second: QRALLYEDTLY [UNC13D_Y56_A59T]
The phosphorylation enrichment of the first is lower: 0.895 for the first, 1.02 for the second.

First: IDDNEYAFLKA [HNF4A_Y286_YF]
Second: DESEDYRDTVV [CNNM3_Y456]
The phosphorylation enrichment of the first is higher: 1.43 for the first, 1.13 for the second.

Going from FIGCIYLFLTK [GARS1_Y414_R412C_YF] to HLRAGYIIPLQ [GAA_Y822], the phosphorylation enrichment falls from 0.573 to 0.534.

First: PVDVAYRHGYF [PLEC_Y2967_R2969H]
Second: MSNFAYVKREV [SCN1A_Y1694]
The phosphorylation enrichment of the first is higher: 1.1 for the first, 0.61 for the second.

Compared with HYGNNYRDVLQ [MACC1_Y803], PVDTYYDSTRG [DYNC2H1_Y2231_M2227V] is higher in phosphorylation enrichment: 0.423 for the first, 1.58 for the second.

First: ENEGTYVCIAT [ADAMTSL3_Y1365]
Second: LQPNNYQFCGG [CSF1R_Y969]
The phosphorylation enrichment of the first is higher: 1.45 for the first, 1.09 for the second.

Compared with KPMDTYYDSTR [DYNC2H1_Y2230], ADDSYYTVRSA [ZAP70_Y493_A495V] is higher in phosphorylation enrichment: 0.76 for the first, 5.2 for the second.

First: QRRLVYYEGGA [RYR1_Y245]
Second: CTTIHYSYMCN [TP53_Y234_N235S]
The phosphorylation enrichment of the first is lower: 0.602 for the first, 0.724 for the second.

Compared with MNLLGYRQVRS [CHST4_Y359_H361Q], KLFFHYDPKLC [INSR_Y457_N458D] is higher in phosphorylation enrichment: 0.614 for the first, 0.67 for the second.

Compared with RNDRVYQPLRD [CD3D_Y149_Q147R], FMLFQYLKQIE [RPAP3_Y569_D564Y_YF] is higher in phosphorylation enrichment: 0.616 for the first, 0.783 for the second.

Going from FSLIHYAGIVV [MYH7_Y582_D587V] to PVDGEYFTLQI [TP53_Y327_L323V], the phosphorylation enrichment rises from 0.777 to 9.07.

Going from ILDEAYVMASV [EGFR_Y764] to IDGLEYLHSQG [STK11_Y166], the phosphorylation enrichment falls from 0.763 to 0.637.

First: DGNIDYAEFAK [MCFD2_Y138_Y135N]
Second: YSSLGYPPPEG [ZSWIM4_Y87]
The phosphorylation enrichment of the first is lower: 0.62 for the first, 0.821 for the second.

First: ATPKGYETDAS [OTC_Y223_P225T]
Second: ECKLRYSRKEG [PTPN11_Y263_L262R]
The phosphorylation enrichment of the first is higher: 0.616 for the first, 0.53 for the second.

DGMADYSDPSY [CDC5L_Y459] showed a phosphorylation enrichment of 0.686.

Biological target: MERTK (UniProt Q12866)
Test: as above

Chain of MERTK (Q12866 whole entry, looked up): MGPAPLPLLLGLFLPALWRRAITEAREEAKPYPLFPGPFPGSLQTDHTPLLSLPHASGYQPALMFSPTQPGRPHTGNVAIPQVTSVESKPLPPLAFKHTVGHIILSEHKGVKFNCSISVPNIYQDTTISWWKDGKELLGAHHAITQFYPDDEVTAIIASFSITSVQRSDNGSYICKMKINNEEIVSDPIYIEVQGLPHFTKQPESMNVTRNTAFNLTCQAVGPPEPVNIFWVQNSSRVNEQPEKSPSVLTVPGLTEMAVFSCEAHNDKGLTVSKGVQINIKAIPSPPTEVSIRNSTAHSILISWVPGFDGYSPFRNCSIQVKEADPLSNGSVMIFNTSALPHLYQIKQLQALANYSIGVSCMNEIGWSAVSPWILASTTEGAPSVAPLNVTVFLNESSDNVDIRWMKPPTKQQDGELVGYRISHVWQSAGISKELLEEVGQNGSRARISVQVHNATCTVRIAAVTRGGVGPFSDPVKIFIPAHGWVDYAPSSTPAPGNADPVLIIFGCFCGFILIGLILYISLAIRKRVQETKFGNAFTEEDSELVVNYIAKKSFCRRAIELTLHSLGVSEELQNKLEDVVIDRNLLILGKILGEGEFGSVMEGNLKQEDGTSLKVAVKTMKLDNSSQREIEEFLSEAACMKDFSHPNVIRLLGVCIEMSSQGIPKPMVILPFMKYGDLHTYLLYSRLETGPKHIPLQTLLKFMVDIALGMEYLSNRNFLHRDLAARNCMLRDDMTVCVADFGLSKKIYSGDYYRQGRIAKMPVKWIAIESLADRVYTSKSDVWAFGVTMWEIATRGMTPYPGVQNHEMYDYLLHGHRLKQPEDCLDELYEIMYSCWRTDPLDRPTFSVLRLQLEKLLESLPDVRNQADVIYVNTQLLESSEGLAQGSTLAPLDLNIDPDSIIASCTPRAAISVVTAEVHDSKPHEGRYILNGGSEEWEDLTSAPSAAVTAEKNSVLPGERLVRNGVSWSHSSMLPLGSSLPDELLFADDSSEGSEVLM

First: GLTSTYAGIRK [ROBO1_Y932]
Second: SPGGDYAAMGA [ERBB3_Y1276_G1271S]
The phosphorylation enrichment of the first is higher: 0.497 for the first, 0.476 for the second.

Going from DTNIAYCLHPR [POMT1_Y581_W582C] to GCVSKYSGVFS [TUBGCP6_Y1624], the phosphorylation enrichment falls from 0.695 to 0.514.

Going from EADRKYEEVAR [TPM3_Y163] to QRALLYEDTLY [UNC13D_Y56_A59T], the phosphorylation enrichment rises from 0.598 to 6.

First: IDDNEYAFLKA [HNF4A_Y286_YF]
Second: DESEDYRDTVV [CNNM3_Y456]
The phosphorylation enrichment of the first is lower: 0.538 for the first, 0.633 for the second.

Going from FIGCIYLFLTK [GARS1_Y414_R412C_YF] to HLRAGYIIPLQ [GAA_Y822], the phosphorylation enrichment falls from 0.415 to 0.355.

Going from PVDVAYRHGYF [PLEC_Y2967_R2969H] to MSNFAYVKREV [SCN1A_Y1694], the phosphorylation enrichment falls from 0.687 to 0.471.

Compared with HYGNNYRDVLQ [MACC1_Y803], PVDTYYDSTRG [DYNC2H1_Y2231_M2227V] is lower in phosphorylation enrichment: 0.612 for the first, 0.554 for the second.

Compared with ENEGTYVCIAT [ADAMTSL3_Y1365], LQPNNYQFCGG [CSF1R_Y969] is higher in phosphorylation enrichment: 0.662 for the first, 1.6 for the second.

Compared with KPMDTYYDSTR [DYNC2H1_Y2230], ADDSYYTVRSA [ZAP70_Y493_A495V] is higher in phosphorylation enrichment: 0.498 for the first, 0.784 for the second.

Going from QRRLVYYEGGA [RYR1_Y245] to CTTIHYSYMCN [TP53_Y234_N235S], the phosphorylation enrichment falls from 1.15 to 0.874.

First: MNLLGYRQVRS [CHST4_Y359_H361Q]
Second: KLFFHYDPKLC [INSR_Y457_N458D]
The phosphorylation enrichment of the first is higher: 0.438 for the first, 0.382 for the second.

Going from RNDRVYQPLRD [CD3D_Y149_Q147R] to FMLFQYLKQIE [RPAP3_Y569_D564Y_YF], the phosphorylation enrichment falls from 0.786 to 0.482.

Compared with FSLIHYAGIVV [MYH7_Y582_D587V], PVDGEYFTLQI [TP53_Y327_L323V] is higher in phosphorylation enrichment: 0.45 for the first, 0.623 for the second.

First: ILDEAYVMASV [EGFR_Y764]
Second: IDGLEYLHSQG [STK11_Y166]
The phosphorylation enrichment of the first is higher: 0.409 for the first, 0.368 for the second.

Compared with DGNIDYAEFAK [MCFD2_Y138_Y135N], YSSLGYPPPEG [ZSWIM4_Y87] is higher in phosphorylation enrichment: 0.51 for the first, 7.49 for the second.

First: ATPKGYETDAS [OTC_Y223_P225T]
Second: ECKLRYSRKEG [PTPN11_Y263_L262R]
The phosphorylation enrichment of the first is lower: 0.421 for the first, 0.523 for the second.

DGMADYSDPSY [CDC5L_Y459] gave a phosphorylation enrichment of 0.496.
